In assay [1] the target is T1, recombinant human CTGF protein (R&D Systems, SEQ ID NO: 79) (human, UniProt P29279 27-349).
T1 construct: Bought; also called human CTGF/CNN2; huCTGF
T1 sequence: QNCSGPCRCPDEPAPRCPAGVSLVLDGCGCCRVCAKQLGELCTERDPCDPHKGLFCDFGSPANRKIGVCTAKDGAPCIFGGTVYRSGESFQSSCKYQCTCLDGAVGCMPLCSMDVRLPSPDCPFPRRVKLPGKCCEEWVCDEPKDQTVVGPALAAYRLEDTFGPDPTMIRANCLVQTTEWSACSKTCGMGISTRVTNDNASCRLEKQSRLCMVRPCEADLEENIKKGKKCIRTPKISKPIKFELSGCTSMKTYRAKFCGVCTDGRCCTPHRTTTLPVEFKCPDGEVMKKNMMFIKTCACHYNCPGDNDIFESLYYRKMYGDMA
Briefly: HTRF, 1 nM biotinylated human CTGF. The procedure:
Binding of some fusion proteins was tested by a Homogeneous Time Resolved Fluorescence (HTRF assay). In detail, 1 nM of biotinylated human CTGF (R&D Systems) was incubated for 1 h with a titration of some lipocalins starting at 5 nM in 384 Flat Bottom White Polystyrol microtiter plate (Greiner). Samples were diluted in PBS containing 0.1% Tween 20 and 2% BSA. As donor, Streptavidin-Terbium at a concentration of 0,006 μg/mL was used, the acceptor was 0.2 μg/mL anti-His-d2 (both CisBio). After another 1 h of incubation, the fluorescence intensity of the donor and acceptor on the plate was read using a fluorescence microplate reader M1000 (Tecan) with the standard settings recommended by CisBio. The calculated ratio of signals was used for the curve fitting performed in GraphPad Prism 7 software.

Assay [2] has as its target T1, recombinant human CTGF protein (R&D …). Briefly: ELISA, coated human CTGF. As for the experimental part: Binding of fusion proteins was tested by an ELISA assay. In detail, a 384-well plate suitable for fluorescence measurements (Greiner FLUOTRAC™ 600, black flat bottom, high-binding) was coated with 20 μl of human CTGF (R&D Systems) at a concentration of 1 μg/ml in PBS over night at 4° C. After washing with PBS with 0.05% Tween 20, wells were blocked with 100 μl blocking buffer containing 0.1% Tween 20 and 2% BSA (PBS-T/BSA) for 1 h at room temperature. 20 μl of serially diluted muteins were incubated in PBS-T/BSA for 1 h at room temperature (RT).
The residual supernatants were discarded and 20 μl HRP-labeled anti-NGAL or anti-His-Tag antibody was added at a predetermined optimal concentration in PBS-T/BSA and incubated for 1 h at RT. After washing, 20 μl fluorogenic HRP substrate (QuantaBlu, Thermo) was added to each well, and the reaction was allowed to proceed for 2 to 60 minutes. The fluorescence intensity of every well on the plate was read using a fluorescence microplate reader (Tecan). Curve fitting was performed using GraphPad Prism 7 or 8 software.
(In general: ELISA stands for enzyme-linked immunosorbent assay.)

B1: fusion protein of SEQ ID NO: 69 (designed binder)
chain: QDSTSDLIPAPPLSKVPLQQNFQDNQFQGKWYVVGLAGNAILREDKQPAKMFATIYELKEDKSYDVTSVRFEAKSCSYTSKTFVPGSQPGEFTAGNIKSAPGQTSTLVRVVSTNYNQHAMVFFKHVSQNRETFVITLYGRTKELTSELKENFIRFSKSLGLPENHIVFPVPIDQCIDGGGGGSGGGGSGGGGSQDSTSDLIPAPPLSKVPLQQNFQDNQFQGKWYVVGLAGNYRLREDKDPSKMGATIYELKEDKSYDVTQVQFDDKKCLYVIETFVPGSQPGEFTLGAIKSYPGLTSQLVRVVSTNYNQHAMVFVKKVWPNLEYFQIVLYGRTKELTSELKENFIRFSKSLGLPENHIVFPVPIDQCIDG
notes: not shown: C-terminal His-tag
As for B1, the EC50 in assay [1] stood at 0.65 nM.

B2: fusion protein of SEQ ID NO: 75 (designed binder)
chain: QDSTSDLIPAPPLSKVPLQQNFQDNQFQGKWYVVGLAGNAILREDKQPAKMFATIYELKEDKSYDVTSVRFEAKSCKYTIKTFVPGSQPGEFTAGYIKSAPGQTSTLVRVVSTNYNQHAMVFFKHVTQNREIFVITLYGRTKELTSELKENFIRFSKSLGLPENHIVFPVPIDQCIDGGGGGSGGGGSGGGGSQDSTSDLIPAPPLSKVPLQQNFQDNQFQGKWYVVGLAGNYRLREDKDPSKMGATIYELKEDKSYDVTQVQFDDKKCLYVIETFVPGSQPGEFTLGAIKSYPGLTSQLVRVVSTNYNQHAMVFVKKVWPNLEYFQIVLYGRTKELTSELKENFIRFSKSLGLPENHIVFPVPIDQCIDG
notes: not shown: C-terminal His-tag
In the case of B2, the EC50 in assay [1] is 0.7 nM.

B3: fusion protein of SEQ ID NO: 72 (designed binder)
chain: QDSTSDLIPAPPLSKVPLQQNFQDNQFQGKWYVVGLAGNAILREDKYPAKMFATIYELKEDKSYDVTSVRFENKSCVYTIKTFVPGSQPGEFTTGNIKSAPGQTSTLVRVVSTNYNQHAMVFFKHVSQNREFFVITLYGRTKELTSELKENFIRFSKSLGLPENHIVFPVPIDQCIDGGGGGSGGGGSGGGGSQDSTSDLIPAPPLSKVPLQQNFQDNQFQGKWYVVGLAGNYRLREDKDPSKMGATIYELKEDKSYDVTQVQFDDKKCLYVIETFVPGSQPGEFTLGAIKSYPGLTSQLVRVVSTNYNQHAMVFVKKVWPNLEYFQIVLYGRTKELTSELKENFIRFSKSLGLPENHIVFPVPIDQCIDG
notes: not shown: C-terminal His-tag
On to B3, for which the EC50 in assay [1] was 0.68 nM.

B4: fusion protein of SEQ ID NO: 63 (designed binder)
chain: QDSTSDLIPAPPLSKVPLQQNFQDNQFQGKWYVVGRAGNNQLREDKSPPKMWATIYELKEDKSYDVTHVHFSTKKCRYIIDTFVPGSQPGEFTAGAIKSGPGLTSPLVRVVSTNYNQHAMVFFKWVTQNREWFTITLYGRTKELTSELKENFIRFSKSLGLPENHIVFPVPIDQCIDGGGGGSGGGGSGGGGSQDSTSDLIPAPPLSKVPLQQNFQDNQFQGKWYVVGLAGNAILREDKQPAKMFATIYELKEDKSYDVTSVRFEAKSCKYTIKTFVPGSQPGEFTAGYIKSAPGQTSTLVRVVSTNYNQHAMVFFKHVTQNREIFVITLYGRTKELTSELKENFIRFSKSLGLPENHIVFPVPIDQCIDG
notes: not shown: C-terminal His-tag
B4: the EC50 in assay [1] worked out at 0.58 nM.

B5: fusion protein of SEQ ID NO: 66 (designed binder)
chain: QDSTSDLIPAPPLSKVPLQQNFQDNQFHGKWYVVGLAGNKILRIDKQPAKMFATIYELKEDKSYDVTSVRFEARSCSYTIKTFVPGSQPGEFTAGNIKSAPGQTSTLVRVVSTNYNQHAMVFFKHVSQNRETFVITLYGRTKELTSELKENFIRFSKSLGLPENHIVFPVPIDQCIDGGGGGSGGGGSGGGGSQDSTSDLIPAPPLSKVPLQQNFQDNQFHGKWYVVGRAGNNRLREDKDPPKMWATIYELKEDKSYDVTHVHFMTKKCRYIIDTFVPGSQPGEFTLGAIKSGPGMTSPLVRIVSTNYNQHAMVFFKWVNQNREWFTITLYGRTKELTSELKENFIRFSKSLGLPENHIVFPVPIDQCIDG
In the case of B5, the EC50 in assay [2] amounted to 1.2 nM.

B6: fusion protein of SEQ ID NO: 62 (designed binder)
chain: QDSTSDLIPAPPLSKVPLQQNFQDNQFQGKWYVVGRAGNNQLREDKSPPKMWATIYELKEDKSYDVTHVHFSTKKCRYIIDTFVPGSQPGEFTAGAIKSGPGLTSPLVRVVSTNYNQHAMVFFKWVTQNREWFTITLYGRTKELTSELKENFIRFSKSLGLPENHIVFPVPIDQCIDGGGGGSGGGGSGGGGSQDSTSDLIPAPPLSKVPLQQNFQDNQFQGKWYVVGWAGNVKLREDKQPQKMSATIYELKEDKSYDVTEVVFEQKKCHYIIKTFVPGSQPGEFTAGDIKSPPGYTSSLVRVVSTNYNQHAMVFFKKVSQNREFFWITLYGRTKELTSELKENFIRFSKSLGLPENHIVFPVPIDQCIDG
notes: not shown: C-terminal His-tag
Take B6: the EC50 in assay [1] came out at 0.63 nM.

B7: fusion protein of SEQ ID NO: 67 (designed binder)
chain: QDSTSDLIPAPPLSKVPLQQNFQDNQFHGKWYVVGLAGNKILRIDKQPAKMFATIYELKEDKSYDVTSVRFEARSCSYTIKTFVPGSQPGEFTAGNIKSAPGQTSTLVRVVSTNYNQHAMVFFKHVSQNRETFVITLYGRTKELTSELKENFIRFSKSLGLPENHIVFPVPIDQCIDGGGGGSGGGGSGGGGSQDSTSDLIPAPPLSKVPLQQNFQDNQFHGKWYVVGWAGNIKLREDKDPFKMSATIYELKEDKSYDVTEVVFEQKKCHYIIKTFVPGSQPGEFTLGDIKSPPGETSSLVRVVSTNYNQHAMVFFKKVFQNREFFWITLYGRTKELTSELKENFIRFSKSLGLPENHIVFPVPIDQCIDG
B7: the EC50 in assay [2] was determined as 1 nM.

B8: fusion protein of SEQ ID NO: 73 (designed binder)
chain: QDSTSDLIPAPPLSKVPLQQNFQDNQFQGKWYVVGLAGNAILREDKYPAKMFATIYELKEDKSYDVTSVRFENKSCVYTSKTFVPGSQPGEFTTGNIKSAPGQTSTLVRVVSTNYNQHAMVFFKHVSQNREFFVITLYGRTKELTSELKENFIRFSKSLGLPENHIVFPVPIDQCIDGGGGGSGGGGSGGGGSQDSTSDLIPAPPLSKVPLQQNFQDNQFQGKWYVVGWAGNVKLREDKQPQKMSATIYELKEDKSYDVTEVVFEQKKCHYIIKTFVPGSQPGEFTAGDIKSPPGYTSSLVRVVSTNYNQHAMVFFKKVSQNREFFWITLYGRTKELTSELKENFIRFSKSLGLPENHIVFPVPIDQCIDG
notes: not shown: C-terminal His-tag
As for B8, the EC50 in assay [1] was 0.83 nM.

B9: fusion protein of SEQ ID NO: 65 (designed binder)
chain: QDSTSDLIPAPPLSKVPLQQNFQDNQFHGKWYVVGRAGNNRLREDKDPPKMWATIYELKEDKSYDVTHVHFMTKKCRYIIDTFVPGSQPGEFTLGAIKSGPGMTSPLVRIVSTNYNQHAMVFFKWVNQNREWFTITLYGRTKELTSELKENFIRFSKSLGLPENHIVFPVPIDQCIDGGGGGSGGGGSGGGGSQDSTSDLIPAPPLSKVPLQQNFQDNQFHGKWYVVGLAGNKILRIDKQPAKMFATIYELKEDKSYDVTSVRFEARSCSYTIKTFVPGSQPGEFTAGNIKSAPGQTSTLVRVVSTNYNQHAMVFFKHVSQNRETFVITLYGRTKELTSELKENFIRFSKSLGLPENHIVFPVPIDQCIDG
For the molecule B9, the EC50 in assay [2] is 0.61 nM.

B10: fusion protein of SEQ ID NO: 70 (designed binder)
chain: QDSTSDLIPAPPLSKVPLQQNFQDNQFQGKWYVVGWAGNVKLREDKQPQKMSATIYELKEDKSYDVTEVVFEQKKCHYIIKTFVPGSQPGEFTAGDIKSPPGYTSSLVRVVSTNYNQHAMVFFKKVSQNREFFWITLYGRTKELTSELKENFIRFSKSLGLPENHIVFPVPIDQCIDGGGGGSGGGGSGGGGSQDSTSDLIPAPPLSKVPLQQNFQDNQFQGKWYVVGLAGNAILREDKQPAKMFATIYELKEDKSYDVTSVRFEAKSCKYTIKTFVPGSQPGEFTAGYIKSAPGQTSTLVRVVSTNYNQHAMVFFKHVTQNREIFVITLYGRTKELTSELKENFIRFSKSLGLPENHIVFPVPIDQCIDG
notes: not shown: C-terminal His-tag
Turning to B10, the EC50 in assay [1] stood at 0.72 nM.

B11: fusion protein of SEQ ID NO: 64 (designed binder)
chain: QDSTSDLIPAPPLSKVPLQQNFQDNQFQGKWYVVGLAGNYRLREDKDPSKMGATIYELKEDKSYDVTQVQFDDKKCLYVIETFVPGSQPGEFTLGAIKSYPGLTSQLVRVVSTNYNQHAMVFVKKVWPNLEYFQIVLYGRTKELTSELKENFIRFSKSLGLPENHIVFPVPIDQCIDGGGGGSGGGGSGGGGSQDSTSDLIPAPPLSKVPLQQNFQDNQFQGKWYVVGLAGNAILREDKQPAKMFATIYELKEDKSYDVTSVRFEAKSCKYTIKTFVPGSQPGEFTAGYIKSAPGQTSTLVRVVSTNYNQHAMVFFKHVTQNREIFVITLYGRTKELTSELKENFIRFSKSLGLPENHIVFPVPIDQCIDG
notes: not shown: C-terminal His-tag
Take B11: in assay [1], the EC50 came to 0.58 nM.

For orientation: EC50 means the concentration at which the effect is half-maximal.

(Values after patent US20240228562A1 (Pieris, published 2024).)
